Results: PMC6736635
Where two headings read alike, the source gives them in different places.

What was measured:
Test in all cases: fluorescence anisotropy
PRC2-AEBP2 [1] = biological target: T1, PRC2-AEBP2 (Homo sapiens, UniProt Q15910;Q15022;O75530;Q09028;Q6ZN18 1-746;1-739;1-441;1-425;1-517)
PRC2-AEBP2 [2] = biological target: T1, PRC2-AEBP2; remark: listed apart in the source
PRC2-AEBP2 mt3 = PRC2-AEBP2 mt3 (Homo sapiens, UniProt Q15910;Q15022;O75530;Q09028;Q6ZN18 1-746;1-739;1-441;1-425;1-517, R16A;K17A;R18A;K20A)
PRC2-MTF2 = PRC2-MTF2 (Homo sapiens, UniProt Q15910;Q15022;O75530;Q09028;Q9Y483 1-746;1-739;1-441;1-425;1-593)
PRC2-AEBP2 mt4 = PRC2-AEBP2 mt4 (Homo sapiens, UniProt Q15910;Q15022;O75530;Q09028;Q6ZN18 1-746;1-739;1-441;1-425;1-517, K656A)
PRC2-AEBP2 mt5 = PRC2-AEBP2 mt5 (Homo sapiens, UniProt Q15910;Q15022;O75530;Q09028;Q6ZN18 1-746;1-739;1-441;1-425;1-517, Y133A;T144A;F145A;Y153A;Y308A)
PRC2-PHF19 = PRC2-PHF19 (Homo sapiens, UniProt Q15910;Q15022;O75530;Q09028;Q5T6S3 1-746;1-739;1-441;1-425;1-580)
PRC2-AEBP2 [3] = biological target: T1, PRC2-AEBP2; remark: listed apart in the source
PRC2-AEBP2 mt2 = PRC2-AEBP2 mt2 (Homo sapiens, UniProt Q15910;Q15022;O75530;Q09028;Q6ZN18 1-746;1-739;1-441;1-425;1-517, H129A;K156A;H158A;G159A;R161A;R306A)
[4] = biological target: PRC2 core (EZH2-EED-SUZ12-RBBP4) (Homo sapiens, UniProt Q15910;Q15022;O75530;Q09028 1-746;1-739;1-441;1-425)
PRC2-MTF2-EPOP = PRC2-MTF2-EPOP (Homo sapiens, UniProt Q15910;Q15022;O75530;Q09028;Q9Y483;A6NHQ4 1-746;1-739;1-441;1-425;1-593;1-379)
PRC2-AEBP2 mt1 = PRC2-AEBP2 mt1 (Homo sapiens, UniProt Q15910;Q15022;O75530;Q09028;Q6ZN18 1-746;1-739;1-441;1-425;1-517, R27A;R31A;F165A;R355A)

Sequence of PRC2 core (EZH2-EED-SUZ12-RBBP4) (Q15910 whole entry, chain 1 of 4): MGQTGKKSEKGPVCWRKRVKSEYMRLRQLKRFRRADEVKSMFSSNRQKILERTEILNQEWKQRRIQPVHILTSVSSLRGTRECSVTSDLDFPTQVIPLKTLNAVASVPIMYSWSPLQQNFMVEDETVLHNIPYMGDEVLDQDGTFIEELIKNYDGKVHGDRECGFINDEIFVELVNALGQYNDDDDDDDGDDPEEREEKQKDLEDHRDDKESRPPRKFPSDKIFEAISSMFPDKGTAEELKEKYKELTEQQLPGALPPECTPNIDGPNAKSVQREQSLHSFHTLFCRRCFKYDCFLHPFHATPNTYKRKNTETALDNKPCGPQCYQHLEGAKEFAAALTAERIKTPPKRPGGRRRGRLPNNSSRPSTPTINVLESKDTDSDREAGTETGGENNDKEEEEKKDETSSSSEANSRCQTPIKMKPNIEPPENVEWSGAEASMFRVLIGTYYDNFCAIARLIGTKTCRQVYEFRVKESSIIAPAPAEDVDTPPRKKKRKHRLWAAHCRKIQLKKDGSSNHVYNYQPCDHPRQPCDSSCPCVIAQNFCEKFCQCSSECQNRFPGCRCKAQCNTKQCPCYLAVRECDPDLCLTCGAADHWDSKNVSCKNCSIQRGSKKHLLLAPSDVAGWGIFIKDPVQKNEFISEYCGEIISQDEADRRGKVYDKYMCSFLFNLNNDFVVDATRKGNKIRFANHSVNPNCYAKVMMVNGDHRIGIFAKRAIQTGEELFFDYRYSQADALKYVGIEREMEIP
Sequence of PRC2 core (EZH2-EED-SUZ12-RBBP4) (Q15022 whole entry, chain 2 of 4): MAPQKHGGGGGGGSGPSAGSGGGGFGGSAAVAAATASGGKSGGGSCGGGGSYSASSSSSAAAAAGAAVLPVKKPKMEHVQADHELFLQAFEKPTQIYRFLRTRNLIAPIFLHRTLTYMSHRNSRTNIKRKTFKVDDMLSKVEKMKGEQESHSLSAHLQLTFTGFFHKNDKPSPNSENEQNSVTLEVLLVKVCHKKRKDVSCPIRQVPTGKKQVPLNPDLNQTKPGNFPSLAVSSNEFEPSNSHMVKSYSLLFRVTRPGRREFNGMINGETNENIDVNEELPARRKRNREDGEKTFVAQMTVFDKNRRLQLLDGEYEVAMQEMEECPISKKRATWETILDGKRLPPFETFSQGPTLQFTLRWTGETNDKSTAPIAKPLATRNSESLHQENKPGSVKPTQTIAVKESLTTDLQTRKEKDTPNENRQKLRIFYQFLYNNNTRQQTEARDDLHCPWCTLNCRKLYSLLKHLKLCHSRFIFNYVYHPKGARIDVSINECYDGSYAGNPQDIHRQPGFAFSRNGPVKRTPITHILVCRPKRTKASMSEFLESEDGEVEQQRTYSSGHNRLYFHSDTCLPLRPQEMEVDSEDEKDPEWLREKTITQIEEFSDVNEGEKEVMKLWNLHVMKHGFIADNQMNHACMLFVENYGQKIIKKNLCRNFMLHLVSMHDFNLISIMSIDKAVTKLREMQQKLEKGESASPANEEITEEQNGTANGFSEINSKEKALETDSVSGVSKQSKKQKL
Sequence of PRC2 core (EZH2-EED-SUZ12-RBBP4) (O75530 whole entry, chain 3 of 4): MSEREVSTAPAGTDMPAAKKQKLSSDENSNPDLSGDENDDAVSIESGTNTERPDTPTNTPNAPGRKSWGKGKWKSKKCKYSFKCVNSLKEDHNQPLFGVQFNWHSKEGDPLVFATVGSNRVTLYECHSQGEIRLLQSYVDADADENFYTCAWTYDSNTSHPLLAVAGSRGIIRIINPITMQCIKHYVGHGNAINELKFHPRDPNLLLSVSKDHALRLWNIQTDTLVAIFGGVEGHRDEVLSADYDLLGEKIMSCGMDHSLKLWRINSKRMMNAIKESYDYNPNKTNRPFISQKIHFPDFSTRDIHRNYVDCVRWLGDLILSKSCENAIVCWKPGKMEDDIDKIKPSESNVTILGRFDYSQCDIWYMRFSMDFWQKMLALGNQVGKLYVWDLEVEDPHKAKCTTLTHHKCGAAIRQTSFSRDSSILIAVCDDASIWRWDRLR
Sequence of PRC2 core (EZH2-EED-SUZ12-RBBP4) (Q09028 whole entry, chain 4 of 4): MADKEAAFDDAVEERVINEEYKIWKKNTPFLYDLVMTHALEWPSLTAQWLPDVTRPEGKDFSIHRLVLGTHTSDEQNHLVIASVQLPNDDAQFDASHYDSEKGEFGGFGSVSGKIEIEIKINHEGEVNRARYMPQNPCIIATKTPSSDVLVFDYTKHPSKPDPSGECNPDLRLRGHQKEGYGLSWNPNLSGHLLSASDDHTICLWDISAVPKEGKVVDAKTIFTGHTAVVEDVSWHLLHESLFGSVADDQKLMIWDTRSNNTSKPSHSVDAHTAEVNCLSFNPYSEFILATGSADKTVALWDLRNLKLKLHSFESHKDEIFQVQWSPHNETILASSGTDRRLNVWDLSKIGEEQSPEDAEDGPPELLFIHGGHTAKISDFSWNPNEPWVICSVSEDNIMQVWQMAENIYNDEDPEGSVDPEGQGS

B1: G4 24 RNA (structured_RNA)
RNA: UUAGGGUUAGGGUUAGGGUUAGGG
PRC2-AEBP2 [1]
  Kd: 60.5 ± 2.2 nM
PRC2-AEBP2 [2]
  Kd: 19.2 ± 2.7 nM
PRC2-AEBP2 mt3
  Kd: 124 ± 7 nM
PRC2-MTF2
  Kd: 82.4 ± 9.8 nM
PRC2-AEBP2 mt4
  Kd: 102 ± 4 nM
PRC2-AEBP2 mt5
  Kd: 93.7 ± 6.3 nM
PRC2-PHF19
  Kd: 34 ± 1.8 nM
PRC2-AEBP2 [3]
  Kd: 54.6 ± 3.8 nM
PRC2-AEBP2 mt2
  Kd: 141 ± 8 nM
[4]
  Kd: 129 ± 6 nM
PRC2-MTF2-EPOP
  Kd: 40.9 ± 3.9 nM
PRC2-AEBP2 mt1
  Kd: 173 ± 7 nM
